# Assay results as given in publication PMC6122996 (The Journal of Cell Biology, 2018).
# T1: recombinant WT full-length Nde1, not phosphorylated (dephospho-Nde1) (mouse, UniProt Q9CZA6 1-344)
# T1 sequence (looked up): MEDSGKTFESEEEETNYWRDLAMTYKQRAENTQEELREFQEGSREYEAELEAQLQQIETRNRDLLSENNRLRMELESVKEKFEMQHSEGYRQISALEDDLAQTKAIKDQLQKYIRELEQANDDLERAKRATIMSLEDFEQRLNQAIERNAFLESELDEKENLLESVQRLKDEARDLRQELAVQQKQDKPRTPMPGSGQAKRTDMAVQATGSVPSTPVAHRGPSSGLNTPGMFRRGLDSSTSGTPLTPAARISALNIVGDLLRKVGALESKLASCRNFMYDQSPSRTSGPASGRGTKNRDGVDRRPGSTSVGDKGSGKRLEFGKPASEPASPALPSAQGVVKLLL
# B1: GST-CENP-F-NBD (GST-tagged CENP-F fragment containing its Nde1-binding domain) (domain or fragment, human, UniProt P49454 2122-2297, looked up)
# chain: EKLRVRIEADEKKQLHIAEKLKERERENDSLKDKVENLERELQMSEENQELVILDAENSKAEVETLKTQIEEMARSLKVFELDLVTLRSEKENLTKQIQEKQGQLSELDKLLSSFKSLLEEKEQAEIQIKEESKTAVEMLQNQLKELNEAVAALCGDQEIMKATEQSLDPPIEEEH
# How the values were obtained:
# CENP-F = CENP-F (UniProt P49454); experiment: anti-GFP co-immunoprecipitation; settings: reference: GFP WT Nde1; sites T215,T243,T246
# [1] = biological target: B1; experiment: pull-down
# [2] = biological target: T1, recombinant WT full-length Nde1, not …; experiment: pull-down
molecule,measurement,setting,value
Nde1 (from UniProt Q9CZA6) GFP-Nde1-3A,binding against the reference,CENP-F,weaker
"GFP-Nde1-3E (triple phosphomimetic Nde1) (natural protein, mouse, UniProt Q9CZA6 1-344, looked up) MEDSGKTFESEEEETNYWRDLAMTYKQRAENTQEELREFQEGSREYEAELEAQLQQIETRNRDLLSENNRLRMELESVKEKFEMQHSEGYRQISALEDDLAQTKAIKDQLQKYIRELEQANDDLERAKRATIMSLEDFEQRLNQAIERNAFLESELDEKENLLESVQRLKDEARDLRQELAVQQKQDKPRTPMPGSGQAKRTDMAVQATGSVPSEPVAHRGPSSGLNTPGMFRRGLDSSTSGEPLEPAARISALNIVGDLLRKVGALESKLASCRNFMYDQSPSRTSGPASGRGTKNRDGVDRRPGSTSVGDKGSGKRLEFGKPASEPASPALPSAQGVVKLLL",fold level pulled down against Nde1-3A,[1],2.5 fold
B1,binding result,[2],binds
